Laboratory results from the supplement of paper PMC9170038.

System: K4 kissing-loop RNA reporter
Assay: apparent KD of K4 kissing-loop reporter; higher = weaker reporter binding
Conditions: Eterna round: R107
Procedure: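 RNA-MaP round R107: designed RNA switches with theophylline, tryptophan, arginine or FMN aptamers are transcribed on-chip within common flanks. They are titrated with a labelled K4 kissing-loop RNA reporter in RNA-MaP buffer (100 mM Tris pH 7.5, 80 mM KCl, 4 mM MgCl2), without ligand or with the indicated ligand. Median apparent KD per design.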

[1] = input ligand: theophylline 20 uM
[2] = input ligand: tryptophan 2.4 mM
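Also: bound reporter read as fluorescence of individual clusters on recovered sequencing chips by microscopy, with normalized cluster intensities fitted with a binding model.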

Row | Sequence | apparent KD of K4 kissing-loop reporter (input ligand: FMN 200 uM) | apparent KD of K4 kissing-loop reporter (input ligand: arginine 13.2 mM) | apparent KD of K4 kissing-loop reporter (input ligand: none) | apparent KD of K4 kissing-loop reporter [1] | apparent KD of K4 kissing-loop reporter [2]
1 | UGUAUGUGAUUUGAUACCAGACCAGCUGGUGUUUCAAGAGUGAUGUUCUUGUAGGUUUGGGUCCCUUGGCAGCAAAUCGCAUACU [KL-SSTheoB15] | 159 nM | 122 nM | 152 nM | 122 nM | 131 nM
2 | GCUCAUCCGGCAGGAUAUAGGCAGGUAGAGUGAUGUUCGAACUGCAGUUAUCCAUCCUUCUACCUACUAGAAGGGCCGGAUGAGC | 376 nM | 214 nM | 209 nM | 188 nM | 292 nM
3 | UGUCAUUGGUCGGCCGCCACUAGGACCGGGUAUAACCUAGUGAUGUUAGUAAGUACGGCCGCCACUAGGACCGGGACCGAUGACU [KL-SSTryp-B19 #DoubleAptamer] | 484 nM | 369 nM | 583 nM | 462 nM | 87.5 nM
4 | GGAUAGGACAGAGGAUAUCUCUGAGGCAAGAAAACUUGUCUCUAAAGAGAUGACUCAGUGAUGUUGGGAGAAGGCUGUCCUAUCG [FmnBX 10 - #SwitchBubble #StaticStem] | 202 nM | 139 nM | 141 nM | 167 nM | 125 nM
5 | CGGAGUCGCGGAAGGAGCGCUCGAUAGACAAGUUGAUCGUGCCGUGGUCGAGUGAUGUUCGAGCAGGUAGGUCGCCGUCGGUCCC [Cexeatedma] | 252 nM | 204 nM | 242 nM | 229 nM | 230 nM
6 | UAUGUACACGGGUAGUGAUACAUCGAGGAAGGAGCGUGCGCAGGCACAGGUAGGUCGCCUCAGCGCACGAGUGAUGUUCGUGGGC [Veti] | 471 nM | 325 nM | 393 nM | 380 nM | 376 nM
7 | AAAGGCAAAGCCCGAGUGAUGUUCGACGAUACCAGCCUCGAUAGAGGCCCUUGGCAGCGUAAAUGAUCAUGAAGCCAAGGAAUAA [whbob_Ex_Theo_A_th67] | 352 nM | 302 nM | 352 nM | 260 nM | 313 nM
8 | GUCUGCGUCUCGGCCGCCACUCACUAGUGAUGUUAGUAAGGAGCGACUAGAGAAGUCCAGUUAAUGAGGACCGGGAGAAGCUCUU [Exclusion Tryptophan B GF 3] | 122 nM | 133 nM | 137 nM | 106 nM | 117 nM
9 | UUAUAUAUAUCAGAUACCAGCAUAAUGGAAACAAAUUAUGUUAUGAGUGAUGUUCAUGUAUGCCCUUGGCAGCUGGUAUGGGUUU [KL-XTheo-B19] | 467 nM | 412 nM | 433 nM | 487 nM | 363 nM
10 | AUUUUUUUAUCAGGAUAUUAGUGUUGGUUUGUUUUGUUAGUGAUGUUGAUAUUUGUUUUAUGUAUUUAAGAAGGGAUUGAGAUGU [huupullin] | 283 nM | 254 nM | 278 nM | 395 nM | 211 nM
11 | ACAGUCGGCUGUGAUACCAGUCGUAUUACAACAUGUUGCAGUGAUGUUGCGAGAUAGGAUGACCCUUGGCAGCACUCAGUACGAU [Same State Theophylline B GF9] | 310 nM | 99.7 nM | 173 nM | 179 nM | 144 nM
12 | ACACUUUACGUAGGAUAUGCGACGAGUGAUGUUCGUCAGGCGGCUUGAGCUUAAACAGGCCGUCUAGCAGAAGGACGGGCAGUGU [Diorsodi] | 147 nM | 143 nM | 192 nM | 194 nM | 168 nM
13 | GGGAAGGACGGAGGAUAUGCACUGAGGAGGAGAAUAUAGUGAUGUUAUAUAAGAGGAAGGAGCUGAGUAGAAGGCCGAGGAAAGG [whbob_SS_FMNB__2th207] | 147 nM | 87.9 nM | 134 nM | 92.4 nM | 129 nM
14 | UAUAUAGUGACGGCCGCCACUAUAGUAAUGUUUUUGUUAGAGUGAUGUUUUGUUUUUUAAUUUUAUAGGACCGGGUUAUAUGUUA [llpmullin] | 360 nM | 218 nM | 374 nM | 376 nM | 240 nM
15 | UAUAGAGUGACGGCCGCCACUAUUGUGAUUUAAUUGUUAGAGUGAUGUUUUGUUGUUUGAUUUUGUAGGACCGGGUUAUAUGUUA [ecewzmullin] | 1050 nM | 768 nM | 976 nM | 854 nM | 802 nM
16 | UGGGCCGCCUGAGGAUAUAGAGACGAGUGAUGUUCGUGGAUAAGAGCCAGUGAUGUUGGGUUAUUUCUAGAAGGCGGGCGAACUU [Exclusion FMN B GF9] | 144 nM | 95.1 nM | 98.6 nM | 164 nM | 131 nM
17 | AAGCAGUCACUCGAAGCCAUCGAAGAUGGGCGAGGACCGGUACGGCCGCCACUCGGAGUGAUGUUCCGAAGACUGCAAAAUAAAA | 512 nM | 669 nM | 498 nM | 508 nM | 567 nM
18 | AUUAUAUUGUGAAGGAGCGCGCAUAGUAGUGAUGUUACUAUGACAUAUCUUAUUUAAUUCUCGCAGGUAGGUCGCACAUUAUAUA [JR_Nu_ExcArginiB_Sub026] | 92.5 nM | 64.8 nM | 79.7 nM | 65.5 nM | 71.8 nM
19 | GCCGUACGCAUGGAUACCAGAGAUGUUAAUCUCGAUGCCAGUGAUGUUGGCUUUAGCAUACUCCCUUGGCAGCCAUGCGUACGGC | 312 nM | 241 nM | 292 nM | 186 nM | 267 nM
20 | GCGCGUCAUGUCAGCGGUGACUCUGUCGAUACCAGCGCCGCAAGGCGCCCUUGGCAGCGACGCGCUGGAGUGAUGUUCCAGCGUG [#2 Exclusion - Theophylline A Attempt #13 (HarryS)] | 157 nM | 142 nM | 160 nM | 150 nM | 145 nM
21 | AGUGAUAUAUGAGGAUAUGGGAUUGUUAAUGAGUUAGUUUUAGUGUUGUUUGGUUAGUGAUGUUAUUUAGAAGGCGUGAGUGAUG [kuktrmullin] | 93.6 nM | 87.4 nM | 96 nM | 116 nM | 70.4 nM
22 | UCCUGCAGUCUGCCACGAAAGUGGAUUGAUACCAGAGUCGAAAGACUCCCUUGGCAGCGAGUGAUGUUCGAAGCAGGUAAAUAAA [MatMod 1 - Jieux - Exclusion - Theophylline A] | 160 nM | 204 nM | 178 nM | 221 nM | 130 nM

Row | Sequence | apparent KD of K4 kissing-loop reporter (input ligand: FMN 200 uM) | apparent KD of K4 kissing-loop reporter (input ligand: arginine 13.2 mM) | apparent KD of K4 kissing-loop reporter (input ligand: none) | apparent KD of K4 kissing-loop reporter [1] | apparent KD of K4 kissing-loop reporter [2]
23 | CCCUAAAUAUGCAGUGAUGUUGCAACUGAUACCAGUAUCGAAAGAUACCCUUGGCAGCGGAAAACCGCUACGUAAUUUAAAAGGG [Ex Theophylline A K4 19] | 243 nM | 327 nM | 356 nM | 385 nM | 243 nM
24 | UUUUUGGAGAAUUAUAGUGAUGUUAUGAAGGAGGAUAUCUGGAGAUGGAGAAGGCCUAGUGGCUCAGCCCUCGCGGGUGGGUGGG [ExFMNA.aD] | 667 nM | 518 nM | 456 nM | 530 nM | 426 nM
25 | UUUGUAGUGGGAGGAUAUCCUAAUAUGGGUGAUGUUAGCGAUGUUGAAGGUGUAGUGAUGUUAUGCGGAGAAGGCCCACUGUAGA [BDazzled - #20 - Exc. FMN B] | 543 nM | 221 nM | 189 nM | 614 nM | 253 nM
26 | CGCUUGGGUGCGGCCGCCACUAGAGCGUGACACGGGUCCCAAAAGGGUGCAGUGAUGUUGCAGCCUAGGACCGGGCACCUCUGGC [Beveesbe] | 107 nM | 83 nM | 90.4 nM | 70.1 nM | 167 nM
27 | CUCGUGGGUUUGAGAGGGCUUGUGGGAAGUGAGGAUAUUUAGGGAGAAAGAAGGCACUAUAAAAUAUAGUGAUGUUAUAUAAGGG [SSFMNA.M] | 494 nM | 138 nM | 188 nM | 751 nM | 347 nM
28 | UUUGGUUUCUCGGCCGCCACUCGUUGGUAAUGGGCCUCAGGGAUAUAGUGAUGUUAUGUAAAGAAGAGGACCGGGAGAAGGAAGG [ExTryptoB.Dn] | 235 nM | 229 nM | 303 nM | 267 nM | 156 nM
29 | UGAUCUCGGCAGUGAUGUUGCAUAUGAGAAGGAGCGCACGAAAGUGCAGGUAGGUCGCUCAGCCAAAGAAAAUAAAACGAGAUCU [#SwitchBubble #K4Early] | 93.4 nM | 121 nM | 101 nM | 124 nM | 82 nM
30 | UGAUAGGACAGAAGGAGCGGUAGUGAUGUUACCAAAAGGAUAAGGUGUCAAAAGACACCCUACCAGGUAGGUCGCUGUCCUAUCU | 124 nM | 112 nM | 107 nM | 85.1 nM | 109 nM
31 | UUUAAAUAUAGUGAUGUUAUAUAACAAUGACGAGGACCGGUACGGCCGCCACUCGAGAGAGAUAAUGGUCAUACAAAUGUAUGUC [AstrosSSTryA#7] | 799 nM | 706 nM | 1100 nM | 830 nM | 564 nM
32 | CUGUCAUGGGAUGGGCCAGUGAUGUUGGGCCGAGGACCGGUACGGCCGCCACUCGUAGCACAGUGCGCGCUAGCAUUGUACGUCA [theeternabot_exclusion_KL_Trp_A_35] | 1260 nM | 629 nM | 977 nM | 808 nM | 456 nM
33 | AGAGUUAUGAGAGGAUAUGCGGCUAGUACUCAAAGAGUACUAGCAGCAGAGUGAUGUUCUGUGAAAGCAGAAGGUUCAUAACUCA [#06 K4 FMN B Same State] | 124 nM | 668 nM | 627 nM | 563 nM | 641 nM
34 | GGGUGAGCGCGAAGGAGCGCCCUGACAGGUUGCUGCCGUGGGCAGUGAUGUUGCUCAGUCCGGCAGGUAGGUCGCGUGCUCACCC | 187 nM | 163 nM | 164 nM | 210 nM | 170 nM
35 | CUUCGAUUAACAGAUACCAGUCACUUGGGAGCCACACACAAGUGAGUGAUGUUCACUUGUGACCCUUGGCAGCUGUUAGUCGAAG [#04 K4 Theophylline B Exclusion] | 102 nM | 86.5 nM | 97.2 nM | 127 nM | 103 nM
36 | GGAUAGGACGGAGGAUAUGGUAGUGAUGUUACCAAACUGGUUAAACAUGUCAGAAAACUGGCAUGACCAGAAGGCUGUCCUAUCG [FmnBX 27 G10] | 112 nM | 65.2 nM | 73 nM | 67.5 nM | 76.6 nM
37 | UGUCUACCGGGAAGGAGCGUGAAUGAUAAUGGAUAUAGUGAUGUUAUAUAUACGAACGAAUCGCAGGUAGGUCGCCCGGAUCCCU [SSArgB.W] | 431 nM | 419 nM | 606 nM | 431 nM | 481 nM
38 | CUGACGAUGACACGGUGGCCGCUGGUCGUGCGAGGACCGGUACGGCCGCCACUCGCAUGAGUGAUGUUCAUGUGUCGUCGUCGUC [#08 K4 Tryptophan A Exclusion] | 133 nM | 101 nM | 111 nM | 112 nM | 118 nM
39 | CGUUUAUAGCAGGAUACCAGUACCGAUAAAGUACGUUAAUAGUAGAGUGAUGUUCUAAAGUACCCUUGGCAGCUUAGAGUGAGUG [ExTheophylB.P] | 95.3 nM | 142 nM | 111 nM | 162 nM | 74.5 nM
40 | GGCAGUGAUGUUGCCAGUGGCAGAUGCGAAGGAGCGUGGUGAGACACAGGUAGGUCGCGCAUUGAAAUUGCUGUCACUAAAAUGC [#3] | 338 nM | 346 nM | 326 nM | 369 nM | 261 nM
41 | AUUUAAUUAACUGAUACCAGACUUUAAGUAAUUAUUAAAACUAGUGAUGUUAGUUUAUCUGUCCCUUGGCAGCAGUUUCUACUUA [JR_Nu_ExcTheophyB_Sub020] | 144 nM | 136 nM | 158 nM | 135 nM | 127 nM
42 | UUGGCUGGACGGGAUACCAGCCAAAUCGUGGGCUUGGGAUGUCUAAGAGCCAGUGAUGUUGGCCCUUGGCAGCCCUCCCAGCUUG [Xerirala] | 104 nM | 97.7 nM | 95.9 nM | 75.5 nM | 113 nM
43 | ACGUCCGGAUUAAUCGUGGGCAUGGUCGAUACCAGAUCUUUAAUGAUCCCUUGGCAGCGACAUGAGUGAUGUUCAUGUGCGAUGA [KL-XTheo-A8 #analogue] | 188 nM | 152 nM | 186 nM | 244 nM | 179 nM
44 | UGGAGUUGACGAAAAGUCAACUCCAGAGAAGGAGCGGACGAAAGUCCAGGUAGGUCGCUCACUACCAGUGAUGUUGGUACUAAAA | 167 nM | 190 nM | 204 nM | 204 nM | 181 nM
